Measurements from patent US20230203124A1.

Experiments:
[1] = biological target: mutated ALK 25-AA long peptide on autologous B cells (HLA-DQB1*0601) (human)
[2] = biological target: mutated ERBB2IP 25-AA long peptide presented by HLA-DQB1*0601 (human)
[3] = biological target: wild-type ERBB2IP 25-AA long peptide on autologous B cells (HLA-DQB1*0601) (human)

- % IFN-γ+/mTCRβ- cells, intracellular IFN-γ by flow cytometry [1]: 1%
- % IFN-γ+/mTCRβ- cells, intracellular IFN-γ by flow cytometry [2]: 0%
- % IFN-γ+/mTCRβ- cells, intracellular IFN-γ by flow cytometry [3]: 0%
Substance: Mock-transduced autologous open-repertoire peripheral blood T cells (cells without a defined receptor)
